According to the supplement of paper PMC9170038:

Test system: K4 kissing-loop RNA reporter
Test: apparent KD of K4 kissing-loop reporter; higher = weaker reporter binding
Settings: Eterna round: R107; input ligand: FMN 200 uM
Experimental: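 RNA-MaP round R107: designed RNA switches with theophylline, tryptophan, arginine or FMN aptamers are transcribed on-chip within common flanks. They are titrated with a labelled K4 kissing-loop RNA reporter in RNA-MaP buffer (100 mM Tris pH 7.5, 80 mM KCl, 4 mM MgCl2), without ligand or with the indicated ligand. Median apparent KD per design.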
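Also: bound reporter read as fluorescence of individual clusters on recovered sequencing chips by microscopy, with normalized cluster intensities fitted with a binding model.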

Point of comparison: “AAUUUAUUAACUGAUACCAGACUUAAUUAAUUGUAAAUUACUAGUGAUGUUAGUGAUUCUGUCCCUUGGCAGCAGUAUUUAUUAA [JR_ExcTheophyB_Sub011]”, “apparent KD of K4 kissing-loop reporter” value 98.3 nM. Against it:
- UGUCAUUGGUCGGCCGCCACUAUAUAAAAGAGUGAUGUUCUAAAGACGGAUCGAAAGAUCUGUCAUAGGACCGGGACCGAUGACU [TrypBS 20 #SwitchBubble #StaticStem] — 3-fold higher, 293 nM
- UCCCUAAAGGGAGAUACCAGUAAAGAAGUGACGGAGUGGAGUGAUGUUCCAUAUUACUGAUACCCUUGGCAGCUCUUUUGAUUAC [theeternabot_sameState_KL_Theo_B_47] — within 1.5-fold, 108 nM
- AACUGUCAAGGACAACAUUACUGAGGUGAUACCAGCAUCGAAAGAUGCCCUUGGCAGCACCGACUUGCAGUGAUGUUGCAAGUAA [BrourdMod 11 - Jieux - Exclusion - Theophylline A] — 2.8-fold higher, 271 nM
- UUUUAAUGCAGUGAUGUUGCUAAUAAAACAGAGGAUAUGCAUGGAAGCAGAAGGCUGAAAUAUUAUACUUUAAUAAAUUAUAUUU [JR_SSFMNA_Sub010] — within 1.5-fold, 71.2 nM
- AUUCUUUUUUUGAUGUUUUUUGUAUAAUGGCAGGAUAUCGUAGAAGCGAGAAGGGCUUUUAUGCGUUAUGAGUGAUGUUUGUAGG [szeewvmullin] — 2.6-fold higher, 254 nM
- GCUAUGGUAGGAAGGAGCGCUUAUUUAUUAAUAAGAGUGAUGUUCGAUAGUAGAUAUUUAUAGCAGGUAGGUCGCCUACUAUAGC [Arginine B K4 12] — 1.9-fold higher, 186 nM
- UUGCUUCUACUAGGAUAUCAUCAGUCAUGUUCAAUGACACUCGAGUGAUGUUCGAUAGAAGCGAGAUGAGAAGGAGUACAAGCAG [FMB B SS t3] — 3.8-fold higher, 374 nM
- GAUUCUGUUCGAAAGAACGGAAUCUCGGAAGGAGCGAGAGAAAUCUCAGGUAGGUCGCCGAAUUUUUGAUAGUGAUGUUAUCAUU [Arginine A K4 3] — 4.4-fold higher, 432 nM
- AAGCAGUCACUCGUAACCAUCGAAGAUGGUCGAGGACCGGUACGGCCGCCACUCGGAGUGAUGUUCCGAAGACUGCAAAAUAAAA [#SwitchBubble 12] — 2.4-fold higher, 237 nM
- AAAUGUUUGUAUUUGAACAAUUUCCUUAGAGAGGAUAUUGGUAAUACAAGAAGGCUCUGAUGGGAGUGAUGUUCCCAUAACGCGG [Exclusion FMN A GF14] — within 1.5-fold, 110 nM
- ACGUGCACUAGUGAUGUUGGAAAAUAGGAAGGAGCGGGCGAAAGCCCAGGUAGGUCGCCUAAUAGCACGAGCCACGAAAGUGGCA — 3.8-fold higher, 376 nM
- GCCGUACGCAUGGAUACCAGCAUCGACUCAUAUACAGUGAUGUUGUGUAAUGACCUCAUUUGCCCUUGGCAGCCAUGCGUACGGC — 4.8-fold higher, 471 nM
- AGUACGGUGCCGUUCAGAUCAACGUAUGAUACCAGCUCGUAUAUUAGCCCUUGGCAGCAUCCGAGUGAUGUUCGGAUUGUGCCAC [theeternabot_exclusion_KL_Theo_A_45] — within 1.5-fold, 113 nM
- CGCGCCCAGCCGGAUACCAGUGACCCGCUGGGAACCGCGGGCCCAGAGUGAUGUUCGGGACACCCUUGGCAGCCGCCUGGGCGGG [#2 Same State - Theophylline B Attempt #16 (HarryS)] — 14-fold higher, 1350 nM
- AAAUUUAAUAUAUUUAAUUAAUUAUGUGAUACCAGACAUUAAUAAGUCCCUUGGCAGCACAAUGCAGUGAUGUUGCAUAUAAUAA [JR_SSTheophyA_Sub011] — within 1.5-fold, 69.4 nM

Same assay, conditions: Eterna round: R107; input ligand: arginine 13.2 mM

Point of comparison: “GUAUGUGGAAACACGUACUUAUAUCCUAAGCAGGAUAUGCGGAAACGCAGAAGGGCUACCAACGAGUUUACCCAGUGAUGUUGGG [Ex FMN A 14]”, “apparent KD of K4 kissing-loop reporter” value 260 nM. Against it:
- GGAGGGAUCUCGGCCGCCACUCAUAAGAAAUGGGCCUCAGAGAUAUAGUGAUGUUAUGUAAAGAAGAGGACCGGGAGAAAGAAGG [ExTryptoB.Db] — 1.8-fold lower, 141 nM
- UAUAUAGUGACGGCCGCCACUAUUGUGAUUUAAUUGUUAGAGUGAUGUUUUGUUGUUUGAUUUUGUAGGACCGGGUUAUAUGUUA [vnbbwzmullin] — 3.3-fold higher, 851 nM
- UACAUAUUAUUAUUUCUACAUUUAUUUAGUCAGGAUAUCGAUUAAACGAGAAGGGACAAUAUCAAGUGAUGUUUGAUAAUUCAAA [JR_SSFMNA_Sub022] — 2.1-fold lower, 123 nM
- GUGGAAUUAUGAAAGUGGUUUUAUAAGGAAGGAGCGGCCGAAAGGCCAGGUAGGUCGCCUAUUGACAGUGAUGUUGUUAUAUGGA [#13] — within 1.5-fold, 180 nM
- GAUGUUUGCCGAAGGAGCGAGUAUUCGCCAGUGAUGUUGGUGAGAUAUACACGUAUCAGUGCUCAGGUAGGUCGCGGCGCUUGUU [Same State Arginine B GF 27] — 2.4-fold lower, 107 nM
- AAGGCCACGAGAAGGAGCGUGCUGUGGAGUGAUGUUCCAUUGUAGACCUAAGGUCUACGAGCACAGGUAGGUCGCUCGUGGUCAA [Omei KL Arginine B SS A v4] — 2.7-fold lower, 97.4 nM
- AAAUUUAUAUUAGAUACCAGCAUAUUGAAAGUUUAUUAUGACAAGAGUGAUGUUCUUGUAUGCCCUUGGCAGCUGGUAUGGGUUU [KL-XTheo-B25] — 2.4-fold lower, 107 nM
- AAGCAGUCGCUCGAAGCCAUCGAAGAUGGGCGAGGACCGGUACGGCCGCCACUCGGAGUGAUGUUCCGAGGACUGCAAAAUAAAA [MatMod 5 - Jieux - Exclusion - Tryptophan A] — within 1.5-fold, 246 nM
- UAGUCCGGGUGAUGGUCAUCACGUGGCGGGCGAGGACCGGUACGGCCGCCACUCGACUUUGCAGUGAUGUUGCAAACCGGACAAU [Exclusion - Tryptophan A (Freestyle 22)] — within 1.5-fold, 192 nM
